From patent US20190367619A1 (ARGENX, published 2019)
Where a chain is given by its changes, count along the chain named.

B1: VHH clone 13C07 (VHH)
VHH: QLQVVESGGGLVQAGGSLRLSCAASSSAYSMAWFRQAPGKEREFVAAITWSGGSHHDDSVKGRFTISRDGAKNTVYLQMNSLKPEDTAVYYCAVGTLYSFSYRDYDYWGQGTQVTVSS
notes: Purified VHH-Myc-His from E. coli; not shown: Myc and His tags of the phagemid vector
B2: VHH clone 13G12 (VHH)
VHH: B1 VHH with A32G, A47V, T49S, H56Y, S101R
notes: as for B1
B3: VHH clone 13A05 (VHH)
VHH: QVQLVESGGGLVQAGGSLRLSCAASSSSYSMSWFRQAPGKEREFVAIISWSGGTYYDDSVKGRFTVSRDNAKNTVYLQMNSLKPEDTAVYYCAAGTQFSFSYREYDYWGQGTQVTVSS
notes: as for B1
B4: VHH clone 13C06 (VHH)
VHH: B3 VHH with V2L, S32G, I47T, T54F, Q97R, D106H
notes: as for B1
B5: scFv 4B10 (periplasmic extract, Myc-tagged) (scFv, not shown: small tags and cut ends)
scFv: QLQLVESGGGLVQPGGSLRLSCAASGFTFSNYWMYWVRQAPGKGLEWVSAIDVGGGTTDYAGSVKGRFTISRDNTKSTVYLQMNTLKPEDTALYYCLRGGSYYGGMDYWGKGTLVTVSSGGGGSGGGGSGGGGSQSALTQPSAVSVSLGQTARITCQGAKLGRYYGIWYQQKPGQAPVQVIYGDSNRPSGIPERFSGSSSGGTATLTISGAQAEDEADYYCQSYESSTSPVFGGGTHLTVL
B6: scFv 4G05 (periplasmic extract, Myc-tagged) (scFv, not shown: small tags and cut ends)
scFv: QLQVVESGGGLVQTGGSLTLSCTTSGFTFSRYWMIWVRQAPGKGLEWVSSIYNDGGNTYYADSVKGRFTISRDNSENTLYLQMNSLKSEDTAVYYCAKLKAAYYGMDYWGKGTLVTVSSGGGGSGGGGSGGGGSSSALTQPSAVSVSLGQTARITCQGANLGRYYGIWYQQKPGQAPVQVIYGDSNRPSGIPERFSGSSSGGTATLTISGAQAEDEADYYCQSYESSTSPVFGGGTHLTVL
B7: scFv 4H10 (periplasmic extract, Myc-tagged) (scFv, not shown: small tags and cut ends)
scFv: QVQLVESGGGLVQPGGSLRLSCAASGFTFDDYAMSWVRQAPGKGLEWVSAISWNGGSTYYAESMKGRFTISRDNAKNTLYLQMNSLKSEDAAVYYCAKDLSASGSYYHTFGSWGQGTQVTVSSGGGGSGGGGSGGGGSQAGLTQPPSVAGTLGKTVTISCAGTSSDVGYGDYVSWYQHIPGTAPKLLIYKVKTRASGIPDRFSGSKSGNTASLTISGLQSGDESDYYCASYKNGGTAVFGGGTHLTVL
B8: scFv 3A03 (periplasmic extract, Myc-tagged) (scFv, not shown: small tags and cut ends)
scFv: QVQLVESGGGLVQPGGSLRLSCATSGFTFSVYAMSWVRQAPGKGLEWVADINTSGDSTTYADSVKGRFTISRDNAKNTLYLQMNSLKPEDTAVYYCANRYTQERGQGTQVTVSSGGGGSGGGGSGGGGSDVVLTQTPGSLSVVPGEAASISCKPGRTLVHTDGRTYLYWLQQKPGQRPQLLIYQVSNRGSGVPDRFTGSGSGTDFTLKISGVKAEDAGVYYCAQATYYPLTFGSGTRLEIK

Target: T1, cynomolgus galectin-10-His, WGS isoform (cynomolgus)
T1 construct: not shown: His tag
T1 chain: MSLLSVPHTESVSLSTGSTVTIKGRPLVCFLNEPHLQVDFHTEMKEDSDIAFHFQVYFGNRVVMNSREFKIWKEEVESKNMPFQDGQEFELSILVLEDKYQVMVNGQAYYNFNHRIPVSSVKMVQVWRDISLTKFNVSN
Experiment: ELISA, Gal10-His coated at 1 ug/mL, VHH titrated, anti-Myc-HRP
Method: (§1) The binding capacity of the 15 VHH clones was analysed by ELISA. Briefly, a Maxisorp plate was coated overnight with human or cynomolgus WGS or YRT isoforms galectin-10-His at 1 μg/mL and blocked with PBS 1% casein, before being incubated with a serial dilution of the VHH (from 4 μM, dilution 1/3, 12 points of dilutions). […] Absorbance was measured at 450 nm (reference at 620 nm) with Tecan instrument. Finally, the raw data (OD values) were plotted on GraphPad Prism 7.01. […] As a positive control, clone 1D06 from the previous human specific panel was included.

Binder | Bmax (OD values) [OD] | EC50 [nM]
B1 | 2.9 | 7.1
B2 | 2.9 | 11.8
B3 | 2.7 | 77.8
B4 | 2.9 | 10.3

Target: T2, cynomolgus galectin-10-His, YRT isoform (cynomolgus)
T2 construct: not shown: His tag
T2 chain: T1 chain with K23E, G24A, L31F, F69Y, K70R, I71T, S92R
Experiment: as above
Method: as §1

Binder | Bmax (OD values) [OD] | EC50 [nM]
B1 | 2.8 | 33.2
B2 | 3.1 | 3.1
B3 | 2.9 | 66.3
B4 | 2.9 | 16.2

Target: T3, human galectin-10-His (human)
T3 construct: Whether the last M of the tag is the start Met of galectin-10 is not clear; also called human Gal10-HIS; humanGal10-His
T3 chain: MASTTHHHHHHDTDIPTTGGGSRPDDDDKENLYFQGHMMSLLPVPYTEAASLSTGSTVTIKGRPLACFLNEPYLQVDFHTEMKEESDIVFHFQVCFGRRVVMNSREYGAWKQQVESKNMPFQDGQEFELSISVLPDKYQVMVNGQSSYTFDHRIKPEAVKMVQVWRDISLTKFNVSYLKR
Experiment: as above
Method: as §1

Binder | Bmax (OD values) [OD] | EC50 [nM]
B1 | 1.3 | 107
B2 | 1.6 | 141
B3 | 1.8 | 69.7
B4 | 2.8 | 27.5

target: T4, human galectin-10 as coated in ELISA (soluble galectin-10; tag not given) (human, UniProt Q05315 1-142, limits assumed); experiment: ELISA, scFv periplasmic extract on coated soluble galectin-10, anti-Myc-HRP
T4 construct: also called coated galectin-10; Gal10
T4 sequence: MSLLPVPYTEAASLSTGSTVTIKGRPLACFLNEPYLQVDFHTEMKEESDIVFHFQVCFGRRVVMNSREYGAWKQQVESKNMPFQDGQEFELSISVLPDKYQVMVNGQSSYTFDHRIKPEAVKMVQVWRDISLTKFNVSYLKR
Method: In order to test the binding capacity of the scFvs to galectin-10, an ELISA binding assay was established. Briefly, a Maxisorp plate was coated with soluble galectin-10 (1 μg/mL), then blocked with casein, before being incubated with the periplasmic extract (dilution 1/5 in PBS) containing the scFv-Myc. Detection of the binder was carried out with an anti-Myc-HRP antibody. Absorbance was measured at 450 nm (reference at 620 nm) with Tecan instrument. A significant number of galectin-10 scFv binders were isolated after the second round of selection (45-87% of binders).

Binder | PERI-ELISA binding (OD values) [OD]
B5 | 2.44
B6 | 3.8
B7 | 3.48
B8 | 3.4
